Experimental data: the DeepSol protein solubility set

experiment: soluble on expression in E. coli; label from the status in PepcDB or PDB records

Sequence	soluble on expression in E. coli
MLYDKSLEKDNCGFGLIAHIEGEPSHKVVRTAIHALARMQHRGAILADGKTGDGCGLLLQKPDRFFRIVAEERGWRLAKNYAVGMIFLNKDPELAAASRHIVEEELQQETLSIVGWRDVPTNEGVLGEIALSSLPRIEQIFVNAPAGWRPRDMERRLFIARRRIEKRLQDDKDFYVCSLSNLVNIYKGLCMPADLPRFYLDLADLRLESAICLFHQRFSTNTVPRWPLAQPFRYLAHNGEINTITGNRQWARARTYKFQTPLIPDLQSAAPFVNETGSDSSSLDNMLELLLAGGMDIIRAMRLLVPPAWQNNPDMDQDLRAFFDFNSMHMEPWDGPAGIVMSDGRFAACNLDRNGLRPARYVITKDKLITCASEVGIWDYQPDEVVEKGRVGPGELMVIDTRGGRILHSAETDDDLKSRHPYKEWMEKNVRRLVPFEELPDEEVGSRELDDDLLASYQKQFNYSAEELDSVIRVLGENGQEAVGSMGDDTPFAVLSSQPRIIYDYFRQQFAQVTNPPIDPLREAHVMSLATSIGREMNVFCEAEGQAHRLSFKSPILLYSDFKQLTTMKEEHYRADRLDITFDVTETTLNATVKALCDKAEQMVRNGTVLLVLSDRNIGKNRLPVPAPMAVGAVQTRLVEQSLRCDANIIVETGSARDPHHFAVLLGFGATAIYPYLAYETLGRLIDTQAIAKNYRTVMQNYRNGINKGLYKIMSKMGISTIASYRCSKLFEAVGLHDDVVNLCFQGVVSRIGGASFDDFQQDLLNLSKRAWLARKPISPGGLLKYVHGGEYHAYNPDVVRTLQQAVQSGEYSDYQEYAKLVNERPASTLRDLLAIHPDGEAVTIDEVEPASELFKRFDTAAMSIGALSPEAHEALAEAMNSLGGNSNSGEGGEDPARYGTNKVSRIKQVASGRFGVTPAYLVNADVIQIKVAQGAKPGEGGQLPGDKVTPYIAKLRYSVPGVTLISPPPHHDIYSIEDLAQLIFDLKQVNPKAMISVKLVSEPGVGTIATGVAKAYADLITIAGYDGGTGASPLSSVKYAGCPWELGLVETQQALVANGLRHKIRLQVDGGLKTGVDIIKAAILGAESFGFGTGPMVALGCKYLRICHLNNCATGVATQDDKLRKNHYHGLPFKVTNYFEFIAREVRELMASLGVTRLVDLIGRTDLLKELEGFTAKQQKLALSRLLETAEPHPGKALYCTENNPPFDNGVLNAQLLQQAKPFVDARQSKTFWFDIRNTDRSVGASLSGYIAQTHGDQGLASDPIKAHFSGTAGQSFGVWNAGGVELYLTGDANDYVGKGMAGGLIAIRPPVGSAFLSHKASIIGNTCLYGATGGRLYAAGRAGERFGVRNSGAITVVEGIGDNGCEYMTGGIVCVLGKTGVNFGAGMTGGFAYVLDEDGEFRKRVNPELVEVLDVDSLAIHEEHLRGLITEHVQHTGSQRGEEILSRWSSFSTQFALVKPKSSDVKALLGHRSRSAAELRVQAQ	not soluble
MLYFVLCDLKFNQFSRYPMSYQKIELSISLSLDSPKLDESDFILLSVKYLEKSLGKKKEFSGFFEDIEKLYFKQNYKEAIEKILDFCKKNESLLSEQVVQRLAEVAPRLKSNPKDNESRRLYETLYADHLESVIKQESDLSVFNELRDSYNAVKPEYAVTHETEIKTLDEAKQFILSFVMLNDNVELPLKAQSERYPKKDRSREELGNTPSANPGIMKPNSPNFTDNLVPVRDVPKIAINEKVAGGYSKTKPTTPFVASLSGTTYSLMVVLTDYIEKHKTDKDIEKKVNQIINLWISSYIKEGYHSYSEVVDVLTEPFLQSIFDKANIKLNYGVLDDTHAEFRKAQDYVFGLTIQSAMHHELQERFKNKEKLQEEVKNFESGLNKLNQNVENTGRHREALNKLNEVFQDWSAGKKSYDAFKSESNQLIHDIESEEQKSNRGLGSMLKNLGNYLLYLITLRFLKEDYPKPSSPVTMLVTELRGTLEQIDHFHKTSLSLKKATQPDPKNTSSSDETADVRKSAVDTDKPSKNQDSEVKKTLDSEQLEEVQRQDDKSARLQ	not soluble
MLYNLAIVIYDLLVHFAAPFSRKPRKMMKGHWVVYELLRQQVEKGEQYIWFHAASLGEFEQGRPLIEMIREKYPDYKILLTFFSPSGYEVRKHYRGADIVCYLPFDKPRNVKKFLDIANPCMAFFIKYEFWKNYLDELHKRRIPVYSVSSIFRRDQIFFKWYGGTYRNVLKDFDHLFVQNEASKRYLSKIGICRVTVVGDTRFDRVLQIREEAKDLPLVKMFKGDNAFTFVAGSSWGPDEDLFLEYFNTHPEMKLIIAPHVIDENHLVEIISKLKRPYVRYTRADEKNVLKVDCLIIDCFGLLSSIYRYGEVAYIGGGFGVGIHNTLEAAVYGIPVIFGPKYQKFMEAIRLLEAKGAYSIKDYHELKTLLDRFQADDVFMRETGANAGYYVTSNAGATEKIMHMINFLEHHHHHH	not soluble
MMAARLLGTSSRIFKLNKHLHTSKVAFMPVVQFKLSDIGEGIAEVQVKEWYVKEGDTISQFDKVCEVQSDKAAVTISCRYDGIVKKLYHEVDGMARVGQALIDVEIEGNVEEPEQPKKEAASSSPEAPKSSAPKAPESAHSEGKVLATPAVRRIAIENKIKLAEVRGTGKDGRVLKEDVLKFLGQVPADHTSGSTNIRTTHQAPQPSSKSYEPLKEDVAVPIRGYTRAMVKTMTEALKIPHFGYNDEINVDSLVKYRAELKEFAKERHIKLSYMPFFIKAASLALLEYPSLNSTTDEKMENVIHKASHNICLAMDTPGGLVVPNIKNCEQRSIFEIAQELNRLLEAGKKQQIKREDLIDGTFSLSNIGNIGGTYASPVVFPPQVAIGAIGKIEKLPRFDKHDNVIPVNIMKVSWCADHRVVDGATMARFSNRWKFYLEHPSAMLAQLK	not soluble
MMEERANLMHMMKLSIKVLLQSALSLGRSLDADHAPLQQFFVVMEHCLKHGLKVKKSFIGQNKSFFGPLELVEKLCPEASDIATSVRNLPELKTAVGRGRAWLYLALMQKKLADYLKVLIDNKHLLSEFYEPEALMMEEEGMVIVGLLVGLNVLDANLCLKGEDLDSQVGVIDFSLYLKDVQDLDGGKEHERITDVLDQKNYVEELNRHLSCTVGDLQTKIDGLEKTNSKLQEELSAATDRICSLQEEQQQLREQNELIRERSEKSVEITKQDTKVELETYKQTRQGLDEMYSDVWKQLKEEKKVRLELEKELELQIGMKTEMEIAMKLLEKDTHEKQDTLVALRQQLEEVKAINLQMFHKAQNAESSLQQKNEAITSFEGKTNQVMSSMKQMEERLQHSERARQGAEERSHKLQQELGGRIGALQLQLSQLHEQCSSLEKELKSEKEQRQALQRELQHEKDTSSLLRMELQQVEGLKKELRELQDEKAELQKICEEQEQALQEMGLHLSQSKLKMEDIKEVNQALKGHAWLKDDEATHCRQCEKEFSISRRKHHCRNCGHIFCNTCSSNELALPSYPKPVRVCDSCHTLLLQRCSSTAS	soluble
MMKIIAFVGMPASGKSEASRIAAEMGIPVIIMGDVIRKEVLKRGLEPNDSNTGMVATDLRKHEGMGAVARRCISQIRETGSELVVVDGVRGIAEVECFRKEFGKGFILISIYAPIEVRFSRVQKRGRSDDMNSIEGLRHRDERELSWGMGEAIDASNVEIENNFTLETFRKDVRDVLSNYLEADLEK	not soluble
MMKKILVACGTGMSTSTMIAQKLQDFLAEQGIAATTAQCCLNEIPLNCNGMDLIVTSMRTHSDYGIPTLNGAALLTGINDDALKQEIKALLTQ	not soluble
MMKTVLIYYPFSLAAERNSGSKLRPYEMHQAFLRWGAKEGVDVLLIAGTSAEREKQFQELRSQGKLDDVWFCYMENQTIPLWLTDPGHRSQRPFVDRDVLRYLKARNVPIGVFYRDVYWKFPDLYPLRGWKKAAMQMMYRWEERFYERYCDVIFLPSLEMGTYVAIRRPMVDLPPGGKQKPFQRFGTAKQPLNAIYVGGINNADYGLLLLLEAIRLANRRKPLVSLTVVCRKDEYERQPLAVKEELAALQVRVEHVSGEALDRLYAEMDFAFIPRRRSEYNDFSVPVKLVDYLSSGLPIVATACSAQKRLIEADGYGVICDDNPSSMAEAIAKMADMLEECRLRIAQTFMAKHSWEARVEKVKETLVGGLR	not soluble
MMNIFILEDDFIQQTRIESIVVGILKETRIPCNQLEVFSTPQKLFESIQERGDHQLYFLDIEIGEYTRCGLELAAAIRQKDPNAVIVFVTTHSEFAPISFKYKVSALDFIDKAGGQKQFKEQIEECIRYTYDMMSSRESKDMFLFETPQTRLKLPYKDILYFATATTPHKVCLWTQTERLEFYGNLSEIQAVAPKLFLCHRSYLVNLDKVVRIDKSKQLLYFENGDSCMVSRLKMKCLFERWEALR	not soluble
